From the domain aggregation screens of Martell et al. (2025)

test: soluble fraction after stress (log2 fold change); higher = more stays soluble; pooled small domains, quantitative proteomics; settings: stress: pH 4
Summary of the method: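 Values are log2 fold changes, and higher ones mean more of the domain stayed soluble. Each fold change reflects the soluble amount of a domain after acid stress and is taken as a measure of aggregation propensity. The stress was pH 4, applied to pooled custom libraries of small protein domains analysed by high-throughput quantitative proteomics.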

First: HMSVFGMEIGKTTEAEAGRMYRLNKEQLNPYSGGYQYSVNPKAIDFSGLEQVTLIFDEKKVLVYVQAV
Second: HMSVIETLLSDREREVLTHLVNGYDAKRIAEITGISTLTVRKHIANIYTKLHVNSKAQVISMAHKNKWF
The “soluble fraction (log2)” value of the first is higher: -0.179 for the first, -0.773 for the second.

“HMSVIKERLTEFLTYKGIGQIKFAEAAGLSRGFVNVLGDGISSKSLNKISQAFPELNTLWLTTGEGEML” and “HMSVKTIRKTEFAKRLYSLMLEKNWNQSDLARASGMGRDSVSQYIRANNTPSPQNLKKLAEALGVEPVELY” are within 0.2 log units of each other in “soluble fraction (log2)” value: -0.061 for the first, 0.0509 for the second.

Compared with “HMSVKYLQIYHAIREKILSNEYAINQQLPDEITLTKEFNSSRMTVKKALDLLVSEGLIFRKRGQGTFVLSR”, “HMSVLDEVRKLSFHQRNAVFLFYFEGYSMKEIAQIFHVKEGTVSSWLTRARKQLRKQMEEEVLYDESLP” is lower in “soluble fraction (log2)” value: ≥ 0.43 for the first, -0.0883 for the second.

First: HMSVLLDDLSPREREILQLVVEGHSSTKIAGMLGLASATVDTYRSRLMAKLHIDNLPDLVRFAIRHGLIS
Second: HMSVLLKEEGSLQLARHGAAYFIIYSAQEHPNQRRHLKISEEESNRIMEGTPIEEIFLAYSG
The “soluble fraction (log2)” value of the first is higher: -0.122 for the first, -0.972 for the second.

“HMSVLQGLIESFKAGDRNLYEVAERLNVTEPFLAEALKDYRARFPKGVQVDNFWISFRPYLTIAEV” and “HMSVNEKVRLFRELNQWSQEEMAERMNMSVAGYAKIERGETNISLHKLKQIASVLQIDLLDLVS” are within 0.2 log units of each other in “soluble fraction (log2)” value: -0.886 for the first, -0.867 for the second.

Going from “HMSVPEAAERAIDVAQMRRALGELSPEQQRVLELAYFGGLTRQEIARATGTPLGTVHTRARLGLQNLRARL” to “HMSVPRVWTDIQGRRVKGDFEGLRGDLVVLRVGGKSYAFPLVRLIASDQAYARSLVAGNPSK”, the “soluble fraction (log2)” value rises from -0.0378 to 0.22.

First: HMSVPSLVGKTDSEAQSAIKSAGLKVGTVTYQYSDETEKGYVVSQSPYSGNKVNAGSTVNIVVSKGK
Second: HMSVPSVAAVREQTGLSQVKFASLLGVSVRTLQEWEQGRRAPSGAARTLLMVAAKNPQALLEV
The “soluble fraction (log2)” value of the first is higher: 0.155 for the first, -0.0956 for the second.

First: HMSVSVEEDADGRVWVYYQDQKMDITDLFDENGVYGFNLEKGDRTVYVEVTKNADGTYSFTQTD
Second: HMSVTIENQINTYFQTRDKISRDELVALIKKDFANWTDNTINIYVSSLQKRGIIHSLSRGMYALGN
The “soluble fraction (log2)” value of the first is lower: -1.34 for the first, 0.22 for the second.

Going from “HMSVTYRLLITSSPGQAEVFLDGKRVGITPFSARLAAGWYQVRVSKEGYNLWEQHVQLREDQRLTATLT” to “HMSWAAQVVDKMTNDQLIKSLNEIVNTGKQLGLDITVEQNGDKNFIMTVKDSKGNVQLVTPIG”, the “soluble fraction (log2)” value falls from 0.229 to -0.937.

Compared with “HMSWEQELIEKANEIIDLYPEKRSALGPLLYLAQERDGYISDESIVEISNLVGITEVQVKSVASFYSMYK”, “HMSWNIHEAVEYYKGQDAPQNQFALVELLKEVQEHNGGVLTDIAVEEIAALLNTKVTFLNAVIKRYPSLK” is higher in “soluble fraction (log2)” value: -2.88 for the first, -0.163 for the second.

Compared with “HMSYEDLIQAVSGHFGIEIRALLSEDRKKENMIPRQVAMYLLKNKLHYTYERIGNIFSGRNHTAVMYSV”, “HMSYGKVQFVIDAKDAVLSIDGKETDYEKPVKLTYGSHTITVYSSDYDTWKRNLYVNSEKSTVVINLA” is higher in “soluble fraction (log2)” value: -0.403 for the first, -0.0156 for the second.

Going from “HMSYKDIKEASDTGTYRDEENNIDVKWQKLFNGHNEYFDIEAYRDGERVEINNQQADRYIYLIKQEMD” to “HMSYPEIFQSLTEREQKIADMIAEHLSNKEIAEKMFLSEGTIKQYINQIYSKLQITGDIRNKRKQLIELFH”, the “soluble fraction (log2)” value rises from -0.357 to -0.0222.

Compared with “HMSYTPGQWVEASMPNATFFRIVPSGNATADKMLAVATPMKVISTSGTYVKVELDSGDVGFVPEIMV”, “HMTAEASELRERIRAAMATLPPAQQRVIELAYFEGLTQREIAALLNEPLGTIKTRMRLGMRKLKDVL” is higher in “soluble fraction (log2)” value: 0.102 for the first, 0.367 for the second.

First: HMTAIKAGDLVKITGTKYYGGQTIPGWVKNQNWYVQEVSGDRAVINKNESGTNAIMSPIRVSDLTPVS
Second: HMTALPPNVSIDSDERRLLEAIGFDPVDMDVLARDGQFSSVDLFRLLVSLELKGLVENQHGAYQRL
The “soluble fraction (log2)” value of the first is higher: -0.0468 for the first, -1.67 for the second.

First: HMTALSAREHEVLQLITRGYTADEIAAMLQISRHTALTYVRRIYSKLKVNSKAEAIFEVRQR
Second: HMTANPHKPEPLQIDTSDITPGVTVIHKAFGNGTVVSVDNNRILIDFDGIEKKFPFPGAFLYGFLQK
The “soluble fraction (log2)” value of the first is higher: -0.215 for the first, -1.17 for the second.

“HMTAPDDFIRAEVTASGKNGMAVAELSKRVRTRFKSFKVRELGYPHLAGYLADVEGVRVYKQGRENWVAK” and “HMTAQASDIEKVLQVIETLGFRGHTLPGENRTAIGVTGNRGSIDPAHFENLPGVADAIRVTKPY” are within 0.2 log units of each other in “soluble fraction (log2)” value: -0.241 for the first, -0.292 for the second.

First: HMTARPTLEKLKYMIHEAGITENSLKVIVATKGHYGLDADISTYSDDFITRWIIPNWTKIVQTISNNK
Second: HMTASSYMGMQLGRLEELLKKEVLSLSEKTELKDLISDFDKIPEVVSPKIIGRYLQLKNQHFAKINA
The “soluble fraction (log2)” value of the first is higher: 0.0354 for the first, -0.2 for the second.

Compared with “HMTAVVPNFKGKLISELSNFVADKNVRYTIIDSIYDPEEKSGIVIKQDPEEKTQVKHNRIIYLYVTST”, “HMTDDFAGRFNELLIHNQETAVTAATRLEVSPAVITKWRQGKSIPSGEYIKRIVETYHVSADYLLGVIDTP” is higher in “soluble fraction (log2)” value: -1.11 for the first, -0.0517 for the second.

Compared with “HMTDEEFSRIVKYTAVRYGINLYHKKVMVEGRLSNYLAANGFKSYTEYMDRVEADYTGQEAQNLINILTT”, “HMTDFDPDGREKLIKVQKALHFNNHQLADALRVGQATFSSYIYGRVAAGVPVRVVKAAEDLLKNSKATV” is higher in “soluble fraction (log2)” value: -1.3 for the first, 0.146 for the second.

First: HMTDFDWSLFTQQLKRFNLFLSYDDREKLQTFQTLYGLNELDLAEYVAKASAGEKNGLNFNYLRQLINKEK
Second: HMTDFNTFSDAIIAAVGSRASGLKVVDNAVSVMVDVSGLNEDQRVEIEADVRAAAEHAGAQSVRIMLT
The “soluble fraction (log2)” value of the first is lower: -1.08 for the first, -0.5 for the second.

First: HMTDLALHIGKTLRELRQRRGWSLDKTAQATGVSKAMLGQIERGESSPTVVTLWRISSGLQASFSEFLPP
Second: HMTDLDVAVTMTVALEEAVNGATRRVRLPNGKELNVKIPAGVAAGQQIRLKGQGETAPGHRPGDVLITVNI
The “soluble fraction (log2)” value of the first is higher: 0.0792 for the first, -0.626 for the second.

Going from “HMTDLQNDIQAFNLKKMSYQHETKKLEEKRNPEKLEKLEQDIQALYLRIMENPNMRAFDSAKQALYLQIM” to “HMTDLVVGLAGITLEPLRPAGKAEFNGSVVDVVSLGDYIEKSTAIQIVEIEGNRIVVHHGED”, the “soluble fraction (log2)” value rises from -1.55 to -1.09.

“HMTDQYEVQNLVGLTVREAQEKEGVKDIFEVREVGSEFSAEYDAGLIVRQSPDAGEQRKGEGLVIEVWVSA” and “HMTDSLELADLLRRAIITGEYKPRERLVEMELAQKYSVSRTPVREALKHLEALGLVKMERYKGAMVAD” are within 0.2 log units of each other in “soluble fraction (log2)” value: -0.409 for the first, -0.573 for the second.

“HMTDSQLVEAENHVALRQAMAHLGPRERELIGLYYFEEQSQTQIAARFGVSQMQVSRWLTSAVGRIRGQMA” and “HMTDWNTVEKETLSAIQKVLSGQASWIDLSPADHSIRHMQHEMVQQAGLISQSYGKEPMRRIRIYQNP” are within 0.2 log units of each other in “soluble fraction (log2)” value: 0.131 for the first, -0.036 for the second.

“HMTEDADIERRLTGILASAGWYRSLAVEVKEGIVYLDGATASGNHRDWAGSLAAKTEGVVAVVNRIEVQP” and “HMTEDIAVRILEFLEDNNGFYALNDKTPSEKIHDLFGVSKKKFKIALGGLYKQRLITVSDAGVTLVK” are within 0.2 log units of each other in “soluble fraction (log2)” value: -0.285 for the first, -0.404 for the second.

Compared with “HMTEDTPIIVERVVADIDENVVAIVRKFKDAFKSITAQREIKKKLRSILWVNYQIKDQEVFDKAYQYIEMY”, “HMTEEDVVIFSGLSDRDLKMVQTELANSGIKYTLPTSGTVSVPNSEIARAQMVLAMAGIPRS” is higher in “soluble fraction (log2)” value: -0.784 for the first, -0.0859 for the second.

Compared with “HMTEEVIIQNYIGKNFNDVRDELEAKGITVDEPNMKYSDEFKENTIMAQSIKPGQPLKPGGFNSIKFDVS”, “HMTEFFNMQDMFYFKLTGDVTSKERRQSLGKILGIGYGNAAQMVSRLNNYGITKEEFTNAINEIEKQMEAG” is lower in “soluble fraction (log2)” value: 0.147 for the first, -0.511 for the second.

Compared with “HMTEISGIEKFLASGAINGIGPAMAKKIVAEFGEKTLEIIAKSPNELLKVPGIGKKTAEKISTSYLEQ”, “HMTEKEEERTEDLNYYRLNLISMLKSSYPEYLDDEEFISNRSQEAAEAFEDAVRSGSNYLDASAESNRTLY” is lower in “soluble fraction (log2)” value: 0.0637 for the first, -0.717 for the second.

First: HMTEKIRLTVDEAGKNQRVDKYISTLLTQFSRSSIKTWIETGNILLDNTRTKPRTLLSPGQVIDIQPRFED
Second: HMTEKIVFNIDGQTGRIDKILADFMTGTSRSQIQAWVKDGNLMVNDKAVKSNYKVQDGDLLELTIPEPEQ
The “soluble fraction (log2)” value of the first is higher: -0.144 for the first, -0.378 for the second.

Going from “HMTELIEDYVELIGDLIRHRGEARAADIANRMAVSQATVSKMIRRLNELGLVTSKPYRSLFLTDEGQKMAE” to “HMTELLTPKQRQVFELALREGYYDVPRRTSITEMARLLGVAKSTLSAQMHRMEATVMSTFAEEIRKQ”, the “soluble fraction (log2)” value rises from -0.469 to 0.0506.

Going from “HMTENIPPVKIEEMRQKWQDIVLLHGVTSGRKIKSGQATYIWLYRNDQNWLLTFNSRHLSQPQV” to “HMTEPKILTAEESQRLDLILVQQWPELGRRALRELVQQGGVRINGELALKAGQYVQAGERVEVAVP”, the “soluble fraction (log2)” value falls from -0.263 to -0.879.

First: HMTEQKNNEQQNAVNEKKQALKQLMEKGKEKGSLSYNEVNALLDKLEFTEDQKAIVYDQLHSEDIELQ
Second: HMTEQLTLVGKTGVTTTDLRPSGKVEVDGKRYDAVADNGAFISKGAHIKVVRYVTGQVYVVPTD
The “soluble fraction (log2)” value of the first is higher: 0.22 for the first, -0.146 for the second.

Going from “HMTERIRLHDDIGSWVEKHGATRSALIPVLQGIQRSYNEISEYAMQEVADRLDIHPVEVYSVVSFYSF” to “HMTESFEFTMNDLVQNNLIMGSGAKERRIAVGEALGIGYTNAKQFLSRLNHYGITRKEFDDEIEKVNQN”, the “soluble fraction (log2)” value falls from 0.103 to -0.217.

First: HMTETEIVIGGKYRHYKGGEYELVSIVKHSETLEELVIYKSLSTGEMWARPKSLFVGLVDGQPRYTL
Second: HMTETIPVSERLFRYLFEEKGKRVQKIQQTSHARVRMERSPYSVVVSGTKDAVEAAMESLKATEKELLEA
The “soluble fraction (log2)” value of the first is lower: -1.39 for the first, 0.321 for the second.
